# B1: HDV Ribozyme (parent)
# chain: GGCCGGCAUGGUCCCAGCCUCCUCGCUGGCGCCGGCUGGGCAACAUUCCGAGGGGACCGUCCCCUCGGUAAUGGCGAAUGGGACCCA
# Variants of: B1
# Assay: self-cleavage, relative activity (ratio to wild type); higher = more cleavage; co-transcriptional
row,Variant,self-cleavage
1,C7G U69A,0.237
2,G6C G54C,0.604
3,G6U C84A,0.375
4,G6U C84U,0.208
5,C7G C22U,0.0898
6,C7G C22G,0.0791
7,C7U U27G,0.431
8,C7G C18U,0.0639
9,C7A G38C,0.106
10,C7A A83G,0.141
11,C7A A83U,0.0426
12,G6C G40A,0.259
13,C7G G11A,0.0346
14,A8C C32U,0.538
15,A8C C32G,0.185
16,C7U G74U,0.202
17,C7A C84G,0.128
18,G6U G52A,0.739
19,C7G C48G,0
20,C7U G50U,0.864
21,C7G U23C,0
22,C7U A16C,0.196
23,G6U A71U,0.415
24,C7U A51U,1.13

row,Variant,self-cleavage
1,G6C U47G,0.158
2,G6C U47A,0.0875
3,C7A G68U,0.623
4,G6C U72C,0.0831
5,G6C U72A,0.0755
6,G6C G73U,0.0923
7,G6U U20C,0.133
8,G6U U20A,0.0978
9,A8C C21U,0.0594
10,C7G C44U,0.0462
11,G6C U69G,0.166
12,G6U C44U,0.162
13,C7G C61G,0.287
14,C7G C61A,0.486
15,C7A G40U,0.295
16,C7A G40A,0.646
17,C7U U60C,1.26
18,C7U U60G,0.831
19,G6U G80C,0.0898
20,C7G C19G,0.0791
21,C7U U79A,0.675
22,C7G G82C,0
23,C7U C19A,0.157
24,C7G U60A,0.317

row,Variant,self-cleavage
1,C7G G10U,0.0462
2,C7U C33G,0.0536
3,C7U C33U,0.672
4,C7G A45U,0.383
5,C7G A71G,0.151
6,C7U G35C,0
7,A8C C44U,0.199
8,G6U C22A,0.0489
9,A8C C48G,0.175
10,G6U G76C,0.676
11,A8C C26U,1.01
12,G6U U37G,0.0554
13,G6U U9G,0.511
14,G6U G25C,0.0426
15,G6U G28A,0
16,G6U G28C,0.0739
17,G6U A56U,0.703
18,C7A C64G,0.429
19,C7A C64U,0.491
20,C7A G81C,0.0536
21,C7G C86U,0.383
22,C7G C85A,0.302
23,G6U C19G,0.0692
24,G6U C19A,0.0326

row,Variant,self-cleavage
1,C7A C66A,0.539
2,C7A C32U,0.227
3,C7A C32A,0.332
4,G6U A42G,0.214
5,G6U A42C,0
6,G6C G53U,0.138
7,G6C C36A,0.095
8,C7U C61U,0.831
9,C7U C18G,0.0639
10,C7A C13U,0.0361
11,C7A C13G,0
12,C7U U69A,0.718
13,C7A C58A,0.772
14,C7G G40C,0
15,C7G G40A,0.0536
16,C7G G40U,0.268
17,G6U C62G,0.332
18,G6U C62A,0.54
19,C7U G81C,0.383
20,C7G G76C,0.151
21,C7U A77C,0.196
22,C7U A77U,0.151
23,G6U G31U,0.121
24,G6C U9A,0.256

row,Variant,self-cleavage
1,C7U C48G,0.831
2,G6U A87C,0.592
3,G6U A87G,0.377
4,C7G C13U,0.158
5,C7G C13G,0.0554
6,G6U U23G,0.178
7,C7A G59A,0.753
8,C7A G59U,0.646
9,G6C G80U,0.0692
10,C7A C15U,0.283
11,G6C U46C,0.145
12,C7G A42G,0.111
13,C7G A42U,0.0665
14,C7U C75G,0.0852
15,C7U C75A,0.177
16,C7G G34C,0.213
17,C7U A83U,0.0852
18,C7G G52U,0.196
19,G6U C66U,0.645
20,C7G U47C,0.293
21,G6C U79A,0.119
22,G6C G25U,0.166
23,C7A U37C,0.719
24,C7A U37A,0.229

row,Variant,self-cleavage
1,C7A C63U,0.652
2,C7G U46C,0
3,G6U C49U,0.485
4,G6U C49G,0.306
5,G6U C49A,0.582
6,G6U G38C,0.095
7,A8C C36U,0.712
8,C7A G52U,0.462
9,G6C G50C,0.554
10,C7A C19A,0.0277
11,C7A C19G,0.145
12,C7U U12G,1.02
13,A8C A56U,1
14,C7U A70C,0.923
15,C7U A70G,0.831
16,C7A C44G,0.0594
17,C7A C44U,0.0723
18,C7U G53U,1.09
19,C7U G53A,0.964
20,C7A U69A,0.449
21,C7U C41U,0.802
22,C7G G80A,0.145
23,G6U A8U,0.403
24,G6U A8G,0.346

row,Variant,self-cleavage
1,C7G C33U,0
2,G6C C49U,0.489
3,G6U G17C,0.0554
4,G6U G17A,0.19
5,C7G U79A,0.123
6,G6U G82U,0
7,A8C C30A,0.0462
8,A8C C30U,0.415
9,G6C C66G,0.332
10,C7U C58U,1.19
11,C7G C36A,0.111
12,C7G C36U,0.0504
13,C7G C36G,0.0723
14,G6U C63U,0.763
15,C7U G11U,0.16
16,C7U G11A,0.423
17,G6U U72C,0
18,G6U G29U,0.104
19,G6C G38C,0
20,C7U C15G,0.536
21,C7U A87U,0.938
22,C7U A87C,0.968
23,C7U C30U,0.483
